To fix the notation:
B1: SMAD3 wild type, overexpressed from pCMV5b-SMAD3 [not stated] / SMAD Anchor for Receptor Activation (SARA) [human (endogenous in HT-1080)] (parent complex)
chain 1: MSSILPFTPPIVKRLLGWKKGEQNGQEEKWCEKAVKSLVKKLKKTGQLDELEKAITTQNVNTKCITIPRSLDGRLQVSHRKGLPHVIYCRLWRWPDLHSHHELRAMELCEFAFNMKKDEVCVNPYHYQRVETPVLPPVLVPRHTEIPAEFPPLDDYSHSIPENTNFPAGIEPQSNIPETPPPGYLSEDGETSDHQMNHSMDAGSPNLSPNPMSPAHNNLDLQPVTYCEPAFWCSISYYELNQRVGETFHASQPSMTVDGFTDPSNSERFCLGLLSNVNRNAAVELTRRHIGRGVRLYYIGGEVFAECLSDSAIFVQSPNCNQRYGWHPATVCKIPPGCNLKIFNNQEFAALLAQSVNQGFEAVYQLTRMCTIRMSFVKGWGAEYRRQTVTSTPCWIELHLNGPLQWLDKVLTQMGSPSIRCSSVS
chain 2: MENYFQAEAYNLDKVLDEFEQNEDETVSSTLLDTKWNKILDPPSHRLSFNPTLASVNESAVSNESQPQLKVFSLAHSAPLTTEEEDHCANGQDCNLNPEIATMWIDENAVAEDQLIKRNYSWDDQCSAVEVGEKKCGNLACLPDEKNVLVVAVMHNCDKRTLQNDLQDCNNYNSQSLMDAFSCSLDNENRQTDQFSFSINESTEKDMNSEKQMDPLNRPKTEGRSVNHLCPTSSDSLASVCSPSQLKDDGSIGRDPSMSAITSLTVDSVISSQGTDGCPAVKKQENYIPDEDLTGKISSPRTDLGSPNSFSHMSEGILMKKEPAEESTTEESLRSGLPLLLKPDMPNGSGRNNDCERCSDCLVPNEVRADENEGYEHEETLGTTEFLNMTEHFSESQDMTNWKLTKLNEMNDSQVNEEKEKFLQISQPEDTNGDSGGQCVGLADAGLDLKGTCISESEECDFSTVIDTPAANYLSNGCDSYGMQDPGVSFVPKTLPSKEDSVTEEKEIEESKSECYSNIYEQRGNEATEGSGLLLNSTGDLMKKNYLHNFCSQVPSVLGQSSPKVVASLPSISVPFGGARPKQPSNLKLQIPKPLSDHLQNDFPANSGNNTKNKNDILGKAKLGENSATNVCSPSLGNISNVDTNGEHLESYEAEISTRPCLALAPDSPDNDLRAGQFGISARKPFTTLGEVAPVWVPDSQAPNCMKCEARFTFTKRRHHCRACGKVFCASCCSLKCKLLYMDRKEARVCVICHSVLMNAQAWENMMSASSQSPNPNNPAEYCSTIPPLQQAQASGALSSPPPTVMVPVGVLKHPGAEVAQPREQRRVWFADGILPNGEVADAAKLTMNGTSSAGTLAVSHDPVKPVTTSPLPAETDICLFSGSITQVGSPVGSAMNLIPEDGLPPILISTGVKGDYAVEEKPSQISVMQQLEDGGPDPLVFVLNANLLSMVKIVNYVNRKCWCFTTKGMHAVGQSEIVILLQCLPDEKCLPKDIFNHFVQLYRDALAGNVVSNLGHSFFSQSFLGSKEHGGFLYVTSTYQSLQDLVLPTPPYLFGILIQKWETPWAKVFPIRLMLRLGAEYRLYPCPLFSVRFRKPLFGETGHTIMNLLADFRNYQYTLPVVQGLVVDMEVRKTSIKIPSNRYNEMMKAMNKSNEHVLAGGACFNEKADSHLVCVQNDDGNYQTQAISIHNQPRKVTGASFFVFSGALKSSSGYLAKSSIVEDGVMVQITAENMDSLRQALREMKDFTITCGKADAEEPQEHIHIQWVDDDKNVSKGVVSPIDGKSMETITNVKIFHGSEYKANGKVIRWTEVFFLENDDQHNCLSDPADHSRLTEHVAKAFCLALCPHLKLLKEDGMTKLGLRVTLDSDQVGYQAGSNGQPLPSQYMNDLDSALVPVIHGGACQLSEGPVVMELIFYILENIV
B2: SMAD2 wild type, overexpressed from pCMV5b-SMAD2 [not stated] / SMAD Anchor for Receptor Activation (SARA) [human (endogenous in HT-1080)] (parent complex)
chain 1: MSSILPFTPPVVKRLLGWKKSAGGSGGAGGGEQNGQEEKWCEKAVKSLVKKLKKTGRLDELEKAITTQNCNTKCVTIPSTCSEIWGLSTPNTIDQWDTTGLYSFSEQTRSLDGRLQVSHRKGLPHVIYCRLWRWPDLHSHHELKAIENCEYAFNLKKDEVCVNPYHYQRVETPVLPPVLVPRHTEILTELPPLDDYTHSIPENTNFPAGIEPQSNYIPETPPPGYISEDGETSDQQLNQSMDTGSPAELSPTTLSPVNHSLDLQPVTYSEPAFWCSIAYYELNQRVGETFHASQPSLTVDGFTDPSNSERFCLGLLSNVNRNATVEMTRRHIGRGVRLYYIGGEVFAECLSDSAIFVQSPNCNQRYGWHPATVCKIPPGCNLKIFNNQEFAALLAQSVNQGFEAVYQLTRMCTIRMSFVKGWGAEYRRQTVTSTPCWIELHLNGPLQWLDKVLTQMGSPSVRCSSMS
chain 2: B1 chain 2

Variants of B1 are the subject of the first assay. The experiment in a line: co-immunoprecipitation (IP: SMAD3, blot SARA) with densitometry; HT-1080 cells transiently transfected; ratio printed relative to the pCMV5b empty-vector lane = 1; parent: 0.6.
As to chain 1 N339S, the screen value came to 0.2.

Variants of B2 are the subject of the next assay. The experiment in a line: co-immunoprecipitation (IP: SMAD2, blot SARA) with densitometry; HT-1080 cells transiently transfected; ratio printed relative to the pCMV5b empty-vector lane = 1; parent: 1.2.
For chain 1 N381S, the screen value was 0.5.

For the origin of these results see publication PMC9179584 (2022).
